Data from PMC6761512, “Trypanosoma cruzi Phosphomannomutase and Guanosine Diphosphate-Mannose Pyrophosphorylase Ligandability Assessment” (Antimicrobial Agents and Chemotherapy, 2019).

B1: T. cruzi GDP-MP enzyme (Trypanosoma cruzi strain CL Brener) (protein)
chain: MSEEKKSVANSKGMRAVILVGGYGTRLRPLTLTMPKPLVPFCNKPIIVHQVEALRDAGVTEVILAVAYRSDAMRKNMDYWSKELGVSFVFSLEEEPLGTAGPLALARDILLQDDQPFFVLNADITCRFPLRELLSFHQKSGKEGTIAVTKVTDWQKYGVVVFDEATGVIDQFVEKPKNFVGDRINAGIYVFNKSVLNRIKVEKTSIETQVFPQMASAKQLCAFILEGFWMDIGVPKDYIEGVGKYLRSLNGTPKESQEVYGFGQAHKTDDFTVIGSVIIDPSAKIGKGCVIGPFATIGPGCVIGPTSRIRNSAILDESTIGKGTLVDSSIIGWKSRVGSWCRVVNNTVLGEDVEVKDELFLNGIKVLPNKSILQSYHEPEVVM
B2: T. cruzi PMM enzyme (Trypanosoma cruzi strain CL Brener) (protein)
chain: MKKVLLLFDIDGTLTPPRLSQPDEVREVIRRAKSAGFTVGTVGGSDLAKQIEQLGEDVFQQFDYVFAENGLLAYKHGKEIHRQNLLKELGNERIVKFVRRALRLLSELDIPVQRGTFIEYRNGMINVCPIGRNCTQSERDEFEVYDKEHHVREKLIKELQNSFPDYGLKYSIGGQISFDVFPVGWDKSYCLRFVENDFDEIHFFGDKTHAGGNDYEIYTDKRIIGHAVKSYKDTVDEVNKLISSK

Key:
[1] = substrate: Nc1nc2c(ncn2[C@@H]2O[C@H](COP(=O)(O)OP(=O)(O)OP(=O)(O)O)[C@@H](O)[C@H]2O)c(=O)[nH]1; experiment: Km determination with the GDP-MP assay; assay type: biochemical; conditions: other: GDP-MP substrates; mean of three independent replicates; pH 7.5
Experimental: (§1) All enzyme and substrate solution dilutions were prepared in assay buffer comprising 25 mM Tris-HCl (pH 7.5), 150 mM NaCl, 4 mM MgCl2, 0.01% (vol/vol) Tween 20, and 1 mM dithiothreitol in ultrapure water. Biochemical assays were performed in a 50-μl final assay volume using clear 384-well assay microplates (Greiner, catalog no. 781101) at room temperature. Unless stated otherwise, all reagent concentrations are written as final biochemical assay concentrations, and DMSO or compounds were added to assay plates using Echo acoustic dispensers (Labcyte). Reagent addition for high-throughput screening assays was performed using an Xrd-384 liquid dispenser (FluidX, UK) and a BioFill Solo/Xrd-384 16 channel resin nozzle (2.00 to 200 μl) tubing cartridge (FluidX, catalog no. 34-1005-S). Biochemical reactions were terminated by addition of 50 μl of BIOMOL Green (Enzo Life Sciences, catalog no. BML-AK111-1000) reagent, after which absorbance was measured following a 30-min incubation at room temperature. Absorbance measurements were performed at 650 nm using a PHERAStar microplate reader (BMG Labtech, Germany), and the data are represented as relative absorbance units (RAU). Linear and nonlinear regression was performed using the SigmaPlot 12.5 software, unless stated otherwise. […]

[2] = substrate: O=P(O)(O)O[C@H]1O[C@H](CO)[C@@H](O)[C@H](O)[C@@H]1O; experiment: Km determination with the GDP-MP assay; assay type: biochemical; conditions: other: GDP-MP substrates; mean of three independent replicates; pH 7.5
Experimental: as §1

[3] = substrate: O=C[C@@H](O)[C@@H](O)[C@H](O)[C@H](O)COP(=O)(O)O; experiment: Km determination with the PMM-GDP-MP assay; assay type: biochemical, Trypanosoma cruzi; conditions: other: PMM substrate and cofactor, mean of three independent replicates, pH 7.5
Experimental: (§2) All enzyme and substrate solution dilutions were prepared in assay buffer comprising 25 mM Tris-HCl (pH 7.5), 150 mM NaCl, 4 mM MgCl2, 0.01% (vol/vol) Tween 20, and 1 mM dithiothreitol in ultrapure water. Biochemical assays were performed in a 50-μl final assay volume using clear 384-well assay microplates (Greiner, catalog no. 781101) at room temperature. Unless stated otherwise, all reagent concentrations are written as final biochemical assay concentrations, and DMSO or compounds were added to assay plates using Echo acoustic dispensers (Labcyte). Reagent addition for high-throughput screening assays was performed using an Xrd-384 liquid dispenser (FluidX, UK) and a BioFill Solo/Xrd-384 16 channel resin nozzle (2.00 to 200 μl) tubing cartridge (FluidX, catalog no. 34-1005-S). Biochemical reactions were terminated by addition of 50 μl of BIOMOL Green (Enzo Life Sciences, catalog no. BML-AK111-1000) reagent, after which absorbance was measured following a 30-min incubation at room temperature. Absorbance measurements were performed at 650 nm using a PHERAStar microplate reader (BMG Labtech, Germany), and the data are represented as relative absorbance units (RAU). Linear and nonlinear regression was performed using the SigmaPlot 12.5 software, unless stated otherwise.
(§3) To measure the activity of the T. cruzi PMM enzyme, a PMM-GDP-MP biochemical assay system was used. […]

[4] = substrate: O=P(O)(O)OC[C@H]1O[C@H](OP(=O)(O)O)[C@H](O)[C@@H](O)[C@@H]1O; experiment: Km determination with the PMM-GDP-MP assay; assay type: biochemical, Trypanosoma cruzi; conditions: other: PMM substrate and cofactor, mean of three independent replicates, pH 7.5
Experimental: as §2, §3

Row | Protein | Km [1] [µM] | Km [2] [µM] | Km [3] [µM] | Km [4] [µM]
1 | B1 | 40.7 | 13.3 | – | –
2 | B2 | – | – | 48.2 | 7.8
